First the molecules themselves.
B1: JH-8B (human IgG mAb) (antibody, V domains shown)
VH: EVQLVESGGGLIQPGGSLRLSCAASGVTVSSNYMSWVRQAPGKGLEWISLIYSGGSTYYADSVKGRFTISRDNSKNTLYLQMNSLRAEDTAVYYCARELDIVGATDIWGQGTMVTVSS
VL: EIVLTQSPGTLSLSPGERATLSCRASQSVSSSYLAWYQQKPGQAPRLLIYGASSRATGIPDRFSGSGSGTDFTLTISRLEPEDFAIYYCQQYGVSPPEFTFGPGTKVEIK
B2: JM-1A (human IgG mAb) (antibody, V domains shown)
VH: QVQLQQSGPGLVKPSGTLSLTCAVSGASISSGDWWSWVRQSPGRGLEWIGGIFHSGTTNYSPSLKSRVTMSVDQPKNQFSLHLTSVTAADTAVYYCARMRGIFDYWGQGTLVTVSS
VL: DIQLTQSPSSLSVSVGDRVTITCRASQAISNSLAWYQQKPGKAPKLLLYAASTLESGVPSRFSGSGSGTDFTLTISSLQPEDFATYYCQHYYSTPFFGGGTKVEIK
B3: FI-3A (Class 1 human mAb) (antibody, V domains shown)
VH: EVQLLESGGGLIQPGGSLRLSCAASGFTVSSNYMSWVRQAPGKGLEWVSVIYSGGSTYYADSVKGRFTISRDNSKNTLYLQMNSLRAEDTAVYYCARDHVRPGMNIWGQGTMVTVSS
VL: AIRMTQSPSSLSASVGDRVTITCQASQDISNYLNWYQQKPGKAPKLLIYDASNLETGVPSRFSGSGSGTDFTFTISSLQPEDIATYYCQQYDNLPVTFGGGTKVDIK
B4: IY-2A (Class 4 human mAb) (antibody, V domains shown)
VH: QVQLVEWGAGLLKPSETLSLTCAVYGGSFSGYYWSWIRQPPGKGLEWIGLINHSGSTNYNPSLKSRVTISLDTSKNQFSLKLTSVTAADTAVYYCARGLGIFGVVTLSDVWGQGTTVTVSS
VL: NFMLTQPHSVSESPGKTVTISCTGSSGSIASNYVQWYQQRPGSAPTTVIYEDNQRPSGVPDRFSGSIDSSSNSASLTISGLRTEDEADYYCQSYDSGIWVFGGGTKLTVL
B5: FD-11A (Class 3 human mAb) (antibody, V domains shown)
VH: EVQLVESGGGVVQPGRSLRLSCAASGFTFSSYGMHWVRQAPGKGLEWVAVIWYDGSNKYYADSVKGRFTISRDNSKNTLYLQMNSLRAEDTAVYYCAKGPDILTGYYNYYYYGMDVWGQGTMVTVSS
VL: QSVLTQPPSVSGAPGQRVTISCTGSSSNIGAGYDVHWYQQLPGTAPKLLIYGNSNRPSGVPDRFSGSKSGTSASLAITGLQAEDEADYYCQSYDSSLSGFYVVFGGGTKLTVL
B6: C121 (Class 2 human mAb) (antibody, V domains shown)
VH: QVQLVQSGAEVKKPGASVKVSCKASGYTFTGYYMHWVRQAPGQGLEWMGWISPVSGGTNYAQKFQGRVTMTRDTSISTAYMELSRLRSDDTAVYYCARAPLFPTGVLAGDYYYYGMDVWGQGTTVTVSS
VL: QSALTQPASVSGSPGQSITISCTGTSSDVGSYNLVSWYQQHPGKAPKLMIYEGSKRPSGVSNRFSGSKSGNTASLTISGLQAEDEADYYCCSYAGSSTLVFGGGTKLTVL
B7: JL-8C (human IgG mAb) (antibody, V domains shown)
VH: QVQLVQSGAEVKKPGESLKISCKGSGYSFTSHWIGWVRQKPGKGLEWVGIIHPYDSDTRYSPSFQGLVTFSADKSSSTAYLQWSSLQASDTAIYYCARRTDQYGSHGMDVWGQGTTVTVSS
VL: QSVLTQPPSASGTPGQRVTISCSGGSSNIGGNPVNWYQQLPATAPKLLIYNNNQRPSGVSDRFSGSKSGTSASLAISGLQSVDEADYFCAAWDDSLNGVLFGGGTKLTVL
B8: JE-5C (human IgG mAb) (antibody, V domains shown)
VH: EVQLLESGGGLVQPGGSLRLSCAASGVTVTSNYMSWVRQAPGKGLEWVSVIYSGGSTYYADSVKGRFTISRHNSKNTLYLQMNSLRAEDTAVYYCARDLREAGGMDVWGQGTTVTVSS
VL: DIVMTQSPSSLSASVGDRVTITCQASQDINNYLNWYQQKPGKAPKLLIYDASNLETGVPSRFSGSGSGTDFTFTISSLQPEDIATYYCQQFDNLPWTFGQGTKVEIR
B9: JM-1A Fab (Fab, V domains shown)
VH: QVQLQQSGPGLVKPSGTLSLTCAVSGASISSGDWWSWVRQSPGRGLEWIGGIFHSGTTNYSPSLKSRVTMSVDQPKNQFSLHLTSVTAADTAVYYCARMRGIFDYWGQGTLVTVSS
VL: DIQLTQSPSSLSVSVGDRVTITCRASQAISNSLAWYQQKPGKAPKLLLYAASTLESGVPSRFSGSGSGTDFTLTISSLQPEDFATYYCQHYYSTPFFGGGTKVEIK
B10: JE-5C Fab (Fab, V domains shown)
VH: EVQLLESGGGLVQPGGSLRLSCAASGVTVTSNYMSWVRQAPGKGLEWVSVIYSGGSTYYADSVKGRFTISRHNSKNTLYLQMNSLRAEDTAVYYCARDLREAGGMDVWGQGTTVTVSS
VL: DIVMTQSPSSLSASVGDRVTITCQASQDINNYLNWYQQKPGKAPKLLIYDASNLETGVPSRFSGSGSGTDFTFTISSLQPEDIATYYCQQFDNLPWTFGQGTKVEIR

This is an account of results in paper PMC11192315 (PLOS Pathogens, 2024).

In the first experiment the target is T1, SARS-CoV-2 RBD, wild type (Wuhan-Hu-1) (SARS-CoV-2, UniProt P0DTC2). Description: cell-based or functional assay.
Conditions: not given
With B1, the “IC50, neutralisation of pseudotyped lentivirus with WT spike” value worked out at 9 ng/mL.

Another experiment deals with T1, SARS-CoV-2 RBD, wild type (Wuhan-Hu-1). In words: ELISA. The settings on record: both partners purified.
Take B2: the binding result is “binds”.

For B3, the binding result is on record as “binds”.

For the molecule B4, the binding result is given as “binds”.

Turning to B5, the binding result is reported as “binds”.

B6: the binding result is reported as “binds”.

Take B7: the binding result is “binds”.

Regarding B8, the binding result is “binds”.

The target in a further experiment is RBD domain (333-530) of SARS-CoV-2 WT Spike (SARS-CoV-2, UniProt P0DTC2). Description: crystal structure. The settings on record: both partners purified.
With B9, the binding result was “binds”.

Regarding B10, the binding result is given as “binds”.
